Test results reported in publication PMC4937829 (Nature structural & molecular biology, 2016).
Residue numbers refer to the chain shown, from its start. Names and notes keep the numbering of the source.

T1: Spy H96L 29-124 (Escherichia coli, UniProt P77754 52-147, H96L)
T1 sequence: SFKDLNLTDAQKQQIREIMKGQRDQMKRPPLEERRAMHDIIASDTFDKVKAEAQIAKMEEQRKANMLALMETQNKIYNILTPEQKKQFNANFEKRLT

B1: Im7 L18A L19A L37A H40W (natural protein, E. coli, UniProt Q03708 1-87, looked up)
chain: MELKNSISDYTEAEFVQAAKEIEKENVAATDDVLDVALEWFVKITEHPDGTDLIYYPSDNRDDSPEGIVKEIKEWRAANGKPGFKQG
B2: wild-type (WT) E. coli Im7 (natural protein, UniProt Q03708 1-87, looked up)
chain: B1 chain with A18L, A19L, A37L, W40H
B3: Im7 L18A L19A L37A (natural protein, E. coli, UniProt Q03708 1-87, looked up)
chain: B1 chain with W40H
B4: Spy 29-124 (wild type) (domain or fragment, Escherichia coli)
chain: T1 sequence with L69H

Assays:
Spy 29-124 (wild type) [1] = molecular target: B4; assay: crystal structure
Spy 29-124 (wild type) [2] = molecular target: B4; assay: other fluorescence titration
Spy H96L 29-124 = molecular target: T1, Spy H96L 29-124; assay: crystal structure
crystal structure = molecular target: the molecule itself; assay: crystal structure

binding result (Spy 29-124 (wild type) [1]) | binding result (Spy H96L 29-124) | Binder | also measured
binds | – | Ac-ELFRQFYQLDAYPSGAWYYVPLGTQYTDAP-NH2 [bovine alpha casein S1 148-177 peptide] | –
– | – | B1 | binding result (Spy 29-124 (wild type) [2]): binds
– | binds | B2 | –
– | binds | B3 | –
– | – | B4 | binding result (crystal structure): binds
binds | – | SISDYTEAEFVQLLKEIEKENVAATDDVLDVLLEHFVKIT [Im7 6-45 peptide] | –
